In patent US20230302148A1, “PHARMACEUTICAL COMPOSITION COMPRISING LONG-ACTING CONJUGATE OF TRIPLE GLUCAGON/GLP-1/GIP RECEPTOR AGONIST” (HANMI PHARM. CO., LTD., priority 2020, published 2023):
Bridges are numbered along the chain shown (N, C = ends). Where no end group is shown, it is not given here. [ ]: non-standard residue; d: D form. The star is where a group is joined. Acetyl(2-(4-imidazolyl)) = O=C(Cc1c[nH]cn1)*; Aib = CC(C)(N)C(=O)O

T1: human GIP receptor (human, UniProt P48546 22-466)
T1 sequence (looked up): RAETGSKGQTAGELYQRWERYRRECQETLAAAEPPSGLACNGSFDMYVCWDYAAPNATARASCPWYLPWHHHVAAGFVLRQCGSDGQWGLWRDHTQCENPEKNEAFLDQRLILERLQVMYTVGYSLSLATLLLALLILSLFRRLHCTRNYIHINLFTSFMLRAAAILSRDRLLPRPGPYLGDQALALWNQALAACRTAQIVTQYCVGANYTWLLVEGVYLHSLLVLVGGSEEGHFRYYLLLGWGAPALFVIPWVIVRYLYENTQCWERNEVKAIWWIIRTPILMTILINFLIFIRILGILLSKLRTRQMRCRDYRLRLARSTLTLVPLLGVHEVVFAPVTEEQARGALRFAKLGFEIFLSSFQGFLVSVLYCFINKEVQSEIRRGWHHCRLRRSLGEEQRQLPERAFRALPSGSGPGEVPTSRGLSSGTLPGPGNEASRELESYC


Experiments:
Assay in all cases: cell-based or functional assay
human GLP-1 receptor = human GLP-1 receptor (human, UniProt P43220 24-463)
human GCG receptor = human GCG receptor (human, UniProt P47871 26-477)
Sequence of human GCG receptor (P47871 26-477): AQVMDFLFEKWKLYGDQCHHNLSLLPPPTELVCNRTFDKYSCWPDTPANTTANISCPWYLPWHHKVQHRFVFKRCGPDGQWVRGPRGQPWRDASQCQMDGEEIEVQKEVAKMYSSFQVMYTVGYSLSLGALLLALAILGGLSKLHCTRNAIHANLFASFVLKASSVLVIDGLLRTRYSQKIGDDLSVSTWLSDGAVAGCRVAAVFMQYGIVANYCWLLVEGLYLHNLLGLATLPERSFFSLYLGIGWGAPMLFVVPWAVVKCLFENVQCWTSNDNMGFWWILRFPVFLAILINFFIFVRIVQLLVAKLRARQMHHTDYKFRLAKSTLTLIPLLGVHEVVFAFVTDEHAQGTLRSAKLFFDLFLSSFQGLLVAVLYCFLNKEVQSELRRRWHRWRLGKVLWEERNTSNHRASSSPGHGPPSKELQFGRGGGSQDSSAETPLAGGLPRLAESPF

human GIP receptor = target: T1, human GIP receptor

| Binder | In vitro activity relative to native peptide (%) vs. GLP-1 (human GLP-1 receptor) [%] | In vitro activity relative to native peptide (%) vs. Glucagon (human GCG receptor) [%] | In vitro activity relative to native peptide (%) vs. GIP (human GIP receptor) [%] |
| --- | --- | --- | --- |
| {Acetyl(2-(4-imidazolyl))}-[Aib]QGTFTSDYSKYLDEKRQKEFVQWLLDTKC (bridge 15-19) [triple agonist of SEQ ID NO: 89] | 7.1 | 0.7 | < 0.1 |
| {Acetyl(2-(4-imidazolyl))}-[Aib]QGTFTSDYSKYLDEKRQKEFVNWLLAQKC (bridge 15-19) [triple agonist of SEQ ID NO: 93] | 5.7 | 0.3 | 0.7 |
| {Acetyl(2-(4-imidazolyl))}-[Aib]EGTFTSDYSIAMDEIHQKDFVDWLLAEC (bridge 15-19) [triple agonist of SEQ ID NO: 84] | 4.2 | < 0.1 | < 0.1 |
| {Acetyl(2-(4-imidazolyl))}-[Aib]EGTFTSDYSIAMDEIHQKDFVNWLLAQC (bridge 15-19) [triple agonist of SEQ ID NO: 83] | 47.3 | 1.3 | 0.4 |
| Y[Aib]QGTFTSDYSKYLDEKAAKDFVQWLLDHHPSSGQPPPSC (bridge 16-20) [triple agonist of SEQ ID NO: 77] | 38.7 | 12.2 | 35.5 |
| Y[Aib]QGTFTSDYSKYLDEKRAKEFVQWLLCHHPSSGQPPPS (bridge 16-20) [triple agonist of SEQ ID NO: 95] | 2.1 | 0.4 | < 0.1 |
| Y[Aib]QGTFTSDYSKYLDEKRAKEFVQWLLDHCPSSGQPPPS (bridge 16-20) [triple agonist of SEQ ID NO: 96] | 34.4 | 195 | 5.2 |
| H[Aib]EGTFTSDYSIAMDEIHQKDFVNWLLAQKC (bridge 16-20) [triple agonist of SEQ ID NO: 79] | 41.5 | 4.9 | 1.4 |
| H[Aib]QGTFTSDVSKYLDGQAAQEFVAWLLAGC [triple agonist of SEQ ID NO: 9] | 32.1 | 0.13 | < 0.1 |
| Y[Aib]QGTFTSDYSKALDEKAAKDFVNWLLDHHPSSGQPPPSC (lactam 16-20) [triple agonist of SEQ ID NO: 99] | 20.9 | 14.9 | 57.7 |
| {Acetyl(2-(4-imidazolyl))}-[Aib]QGTFTSDYSIAMDEIHQKDFVNWLLAQKC (bridge 15-19) [triple agonist of SEQ ID NO: 92] | 0.8 | < 0.1 | 0.4 |
| H[Aib]EGTFTSDYSIAMDEIHQKDFVDWLLAEKC (bridge 16-20) [triple agonist of SEQ ID NO: 80] | 8.1 | 0 | 0.1 |
| {Acetyl(2-(4-imidazolyl))}-[Aib]EGTFTSDYSIAMDEIHQKDFVNWLLAQKC (bridge 15-19) [triple agonist of SEQ ID NO: 90] | 7.4 | < 0.1 | < 0.1 |
| {Acetyl(2-(4-imidazolyl))}-[Aib]QGTFTSDYSIAMDEIHQKDFVNWLLNTC (bridge 15-19) [triple agonist of SEQ ID NO: 87] | 0.9 | < 0.1 | < 0.1 |
| {Acetyl(2-(4-imidazolyl))}-[Aib]EGTFTSDYSIAMDEIHQKDFVDWLLAEKC (bridge 15-19) [triple agonist of SEQ ID NO: 91] | 31.9 | 16.8 | 0.3 |
| Y[Aib]QGTFTSDYSKALDEKAAKEFVNWLLDHHPSSGQPPPSC (bridge 16-20) [triple agonist of SEQ ID NO: 98] | 28.1 | 8.2 | 47.1 |
| H[Aib]QGTFTSDVSKYLDGQAAQEFVAWLLAGGGPSSGAPPPSC [triple agonist of SEQ ID NO: 10] | 46 | < 0.1 | < 0.1 |
| [Acetyl(2-(4-imidazolyl))][Aib]QGTFTSDYSKCLDEKRAKEFVQWLLDHHPSSGQPPPS (bridge 16-20; not fully specified) [triple agonist of SEQ ID NO: 74] | 12.9 | 0.9 | 1 |
| {Acetyl(2-(4-imidazolyl))}-[Aib]QGTFTSDYSKYLDEKRQKEFVNWLLAQC (bridge 15-19) [triple agonist of SEQ ID NO: 86] | 28.4 | 0.4 | 0.2 |
| {Acetyl(2-(4-imidazolyl))}-[Aib]QGTFTSDYSKYLDEKRQKEFVQWLLNTKC (bridge 15-19) [triple agonist of SEQ ID NO: 88] | 9.6 | 0.3 | < 0.1 |
| Y[Aib]QGTFTSDYSKYLDEKRAKDFVQWLLDHHPSSGQPPPSC (bridge 16-20) [triple agonist of SEQ ID NO: 76] | 10.3 | 47.6 | 11.7 |
| {Acetyl(2-(4-imidazolyl))}-[Aib]QGTFTSDYSIAMDEIHQKDFVNWLLAQC (bridge 15-19) [triple agonist of SEQ ID NO: 85] | 4.3 | < 0.1 | 0.3 |
| {Acetyl(2-(4-imidazolyl))}-[Aib]QGTFTSDYSIAMDEIHQKDFVNWLLNTKC (bridge 15-19) [triple agonist of SEQ ID NO: 94] | 0.5 | < 0.1 | < 0.1 |
| Y[Aib]QGTFTSDYSKALDEKAAKEFVQWLLDQHPSSGQPPPSC (bridge 16-20) [triple agonist of SEQ ID NO: 100] | 42.2 | 12.7 | 118 |
| H[Aib]QGTFTSDYSKYLDEKRQKEFVQWLLDTKC (bridge 16-20) [triple agonist of SEQ ID NO: 78] | 51 | 14 | 0.12 |
| Y[Aib]QGTFTSDYSKYLDEKAAKEFVQWLLDHHPSSGQPPPSC (bridge 16-20) [triple agonist of SEQ ID NO: 75] | 35.1 | 8.5 | 18 |
| {Acetyl(2-(4-imidazolyl))}-[Aib]QGTFTSDYSKYLDEKRQKEFVQWLLDTC (bridge 15-19) [triple agonist of SEQ ID NO: 82] | 9.5 | 1.1 | < 0.1 |
| {Acetyl(2-(4-imidazolyl))}-[Aib]QGTFTSDYSKYLDEKRQKEFVQWLLNTC (bridge 15-19) [triple agonist of SEQ ID NO: 81] | 7.8 | 0.3 | < 0.1 |
